The record followed here is patent US20060105403A1 (published 2006).

Assay [1] addresses T1, murine ACC-α (acetyl-Coenzyme-A carboxylase, α form), endogenous protein of murine cell lysates (murine, UniProt Q5SWU9 1-2345). The experiment in a line: GST co-sedimentation in a lysate of murine fibroblasts. The text has this:
The inventors have shown that the tandem of the two BRCT domains was necessary and sufficient for the formation of this complex. Moreover, the inventors have shown that the formation of this complex was conserved in the human cells, using a GST-human BRCT fusion protein in co-sedimentation experiments similar to those cited above.
(§1) The proteins for fusion with GST were synthesised in Escherichia coli, strain JM 109 (Promega) transformed with pGEX-4T-1, pGEX-BRCT, pGEX-BRCT A, pGEX-BRCT B, pGEX-BRCT L, pGEX-BRCT M or pGEX-BRCTh as well as the mutated forms of BRCTh (A1708E, P1749R, M1775R, R1835X and Y1853X). They were purified by affinity chromatography on Glutathione-Sepharose. The test of binding by co-sedimentation was carried out in vitro by incubating cellular lysates in the presence of non-recombinant GST proteins or GST fusion proteins and Glutathione-Sepharose beads. 10 μg of GST or fusion GST were used in each binding test. The protein complexes were carefully washed (50 mM Tris HCl pH 7.6, 100 mM KCl, 0.05% Tween 20, 1 mM DTT, 0.2 mM PMSF) to eliminate the non-specific protein interactions and released by heating at 100° C. in loading buffer 5× SDS-PAGE and 100 mM DTT. The proteins were analysed by SDS-PAGE and visualised by autoradiography, staining with silver (Bio-Rad SilverStain) or staining with Coomassie blue according to the nature of the lysate used

Assay [2] addresses T1, murine ACC-α (acetyl-Coenzyme-A …). The experiment in a line: GST co-sedimentation, Western blot with streptavidin-peroxidase. As to the method: as §1
In order to map the domain of interaction of ACC-α on the BRCT tandem of Brca1, co-sedimentation tests with six distinct fusion proteins were carried out. The protein complexes of co-sedimentation were resolved by SDS-PAGE and visualised by Western Blot. The ACC protein containing the biotin was detected using peroxidase coupled with streptavidin, and as streptavidin has a high affinity for biotin it is therefore a very sensitive probe for detecting ACC-α (Witters, L. A. et al, 1994). […] However, the fragment GST-BRCT A which lacks the sequences of the domain B of BRCT is incapable of combining with ACC-α.

The target is the same in assay [3]. Put plainly: GST co-sedimentation on NIH3T3 lysate.
The target is the same in assay [4]. Put plainly: GST co-sedimentation with the mutated tandem. The method, then: as §1
Numerous familial mutations have been found in the carboxy-terminal segment of BRCA1. One of these, R1835X, localised in the distal domain of BRCT, introduces a non-sense codon which suppresses the last 29 amino acids of Brca1 and thus breaks the second BRCT domain. […]

B1: GST-BRCT (GST fusion protein containing amino acids 1583 to 1812 of murine Brca1) (other)
chain: TSSEERADRDISMVVSGLTPKEVMTVQKFAEKYRLTLTDAITEETTHVIIKTDAEFVCERTLKYFLGIAGGKWIVSYSWVVRSIQERRLLNVHEFEVKGDVVTGRNHQGPRRSRESREKLFKGLQVYCCEPFTNMPKDELERMLQLCGASVVKELPSLTHDTGAHLVVIVQPSAWTEDSNCPDIGQLCKARLVMWDWVLDSLSSYRCRGLDAYLVQNITCDSSEPQDSND
notes: Made in E. coli and held on glutathione-Sepharose beads; also called murine BRCT tandem; BRCT tandem of Brca1; not shown: glutathione S-transferase (GST) encoded by pGEX-4T-1 (Amersham Pharmacia Biotech)
On to B1, for which the binding result in assay [1] was “binds”.

B2: GST-BRCT A (GST fusion with the first BRCT module of murine Brca1 alone) (other)
chain: TSSEERADRDISMVVSGLTPKEVMTVQKFAEKYRLTLTDAITEETTHVIIKTDAEFVCERTLKYFLGIAGGKWIVSYSWVVRSIQERRLLNVHEFEVKGDVVTGRNHQGPRRSRESREKLFKG
notes: It uses the same forward primer as GST-BRCT, so it probably starts at residue 1583; also called BRCT A module alone; pGEX-BRCT A product; not shown: GST carrier and vector linker of pGEX-4T-1 at the N end
Turning to B2, the binding result in assay [2] is given as “no binding (tested: 10 µg of fusion GST per binding test)”.

B3: GST-BRCTh (GST fusion with the human form of the BRCT tandem of BRCA1) (other)
chain: TASTERVNKRMSMVVSGLTPEEFMLVYKFARKHHITLTNLITEETTHVVMKTDAEFVCERTLKYFLGIAGGKWVVSYFWVTQSIKERKMLNEHDFEVRGDVVNGRNHQGPKRARESQDRKIFRGLEICCYGPFTNMPTDQLEWMVQLCGASVVKELSSFTLGTGVHPIVVVQPDAWTEDNGFHAIGQMCEAPVVTREWVLDSVALYQCQELDTYLIPQIPHSHY
notes: also called GST-human BRCT fusion protein; human BRCT tandem; not shown: glutathione S-transferase (GST) encoded by the pGEX vector
With B3, the binding result in assay [3] is given as “binds”.

B4: GST-BRCT B (GST fusion with the second BRCT module of murine Brca1 alone) (other)
chain: REKLFKGLQVYCCEPFTNMPKDELERMLQLCGASVVKELPSLTHDTGAHLVVIVQPSAWTEDSNCPDIGQLCKARLVMWDWVLDSLSSYRCRGLDAYLVQNITCDSSEPQDSND
notes: also called BRCT B module alone; pGEX-BRCT B product; not shown: GST carrier and vector linker of pGEX-4T-1 at the N end
Regarding B4, the binding result in assay [2] is given as “no binding (tested: 10 µg of fusion GST per binding test)”.

B5: GST-Brca1 N (GST fusion containing the 220 N-terminal residues of murine Brca1) (other)
chain: MDLSAVQIQEVQNVLHAMQKILECPICLELIKEPVSTKCDHIFCKFCMLKLLNQKKGPSQCPLCKNEITKRSLQGSTRFSQLAEELLRIMAAFELDTGMQLTNGFSFSKKRNNSCERLNEEASIIQSVGYRNRVRRLPQVEPGNATLKDSLGVQLSNLGIVRSVKKNRQTQPRKKSVYIELDSDSSEETVTKPGDCSVRDQELLQTAPQEAGDEGKLHSA
notes: also called GST fusion protein expressing the 220 amino-terminal residues of the murine Brca1 protein; not shown: glutathione S-transferase (GST); the vector for this construct is not described
Take B5: the binding result in assay [2] was “no binding (tested: 10 µg of fusion GST per binding test)”.

B6: GST-BRCT L (GST fusion containing residues 1512-1812 of murine Brca1) (other)
chain: EGTPYLGSGISLFSSRDPESESPKEPAHIGTTPASTSALKIPQGQVAFRSAAAAGADKAVVGIVSKIKPELTSSEERADRDISMVVSGLTPKEVMTVQKFAEKYRLTLTDAITEETTHVIIKTDAEFVCERTLKYFLGIAGGKWIVSYSWVVRSIQERRLLNVHEFEVKGDVVTGRNHQGPRRSRESREKLFKGLQVYCCEPFTNMPKDELERMLQLCGASVVKELPSLTHDTGAHLVVIVQPSAWTEDSNCPDIGQLCKARLVMWDWVLDSLSSYRCRGLDAYLVQNITCDSSEPQDSND
notes: also called longer form of the murine BRCT domain; pGEX-BRCT L product; not shown: glutathione S-transferase (GST) encoded by pGEX-4T-1
Turning to B6, the binding result in assay [2] is reported as “binds”.

B7: GST-BRCT M (GST-BRCT of murine Brca1 with the non-sense mutation W1777X) (other)
chain: TSSEERADRDISMVVSGLTPKEVMTVQKFAEKYRLTLTDAITEETTHVIIKTDAEFVCERTLKYFLGIAGGKWIVSYSWVVRSIQERRLLNVHEFEVKGDVVTGRNHQGPRRSRESREKLFKGLQVYCCEPFTNMPKDELERMLQLCGASVVKELPSLTHDTGAHLVVIVQPSAWTEDSNCPDIGQLCKARLVM
notes: also called mutated tandem; pGEX-BRCT M product; not shown: GST carrier and vector linker of pGEX-4T-1 at the N end
Take B7: in assay [4], the binding result is “no binding (tested: 10 µg of fusion GST per binding test)”.
